Here are results for one molecule from US9528993B2, “Agents and methods related to screening for resistance to DR5 and reducing resistance to DR5 agonists” (The UAB Research Foundation, priority 2005, dated 2016).

Assay [1] has as its target T1, cIAP1 (Homo sapiens, UniProt Q13490).
T1 construct: endogenous in cells
Kind of assay: Co-immunoprecipitation of DDX3 mutant with cIAP1. It is filed as binding. The protocol: Anti-DDX3 or anti-TRAIL-R2 antibody was conjugated to Sepharose beads (Sigma). The composition of the TRAIL-R2 DISC was determined as follows. 5×10^6 cells (if not otherwise indicated) were treated with 500 ng/ml of TRA-8 for the indicated time at 37° C. and then lysed in immunoprecipitation-lysis buffer (20 mM Tris-HCl, pH 7.4, 150 mM NaCl, 0.2% NONIDET P40, and 10% glycerol and complete protease inhibitor cock-tail) or lysed without treatment (unstimulated condition). […] After immunoprecipitation, the beads were washed four times with lysis buffer. The beads were then washed five times with 10 mM Tris buffer and resuspended in loading buffer for SDS-PAGE and immunoblotting analyses.

For assay [2], the system named is TRA-8-resistant tumor cells. Kind of assay: ATPLITE assay of TRA-8-resistant tumor cells transfected with DDX3ΔCARD. It is filed as cell-based. The note with it: four lines, adenoviral vector, 500 ng/ml TRA-8 overnight. As to the method:
Cytotoxicity analysis of tumor cell susceptibility to TRA-8, 2E12, and TRAIL-mediated apoptosis. Cells (1,000 cells per well) were seeded into 96-well plates in triplicate with eight concentrations (double serial dilutions from 1000 ng/ml) of TRA-8, 2E12, or TRAIL. Cell viability was determined after overnight culture using an ATPLITE™ assay according to the manufacturer's instructions (Packard Instruments, Meriden, Conn.). The results are presented as the precentage of viable cells in treated wells compared to medium control wells.
A general note: In ATP-based viability assays light output follows the ATP content of the culture.

T1 sequence (Q13490 whole entry): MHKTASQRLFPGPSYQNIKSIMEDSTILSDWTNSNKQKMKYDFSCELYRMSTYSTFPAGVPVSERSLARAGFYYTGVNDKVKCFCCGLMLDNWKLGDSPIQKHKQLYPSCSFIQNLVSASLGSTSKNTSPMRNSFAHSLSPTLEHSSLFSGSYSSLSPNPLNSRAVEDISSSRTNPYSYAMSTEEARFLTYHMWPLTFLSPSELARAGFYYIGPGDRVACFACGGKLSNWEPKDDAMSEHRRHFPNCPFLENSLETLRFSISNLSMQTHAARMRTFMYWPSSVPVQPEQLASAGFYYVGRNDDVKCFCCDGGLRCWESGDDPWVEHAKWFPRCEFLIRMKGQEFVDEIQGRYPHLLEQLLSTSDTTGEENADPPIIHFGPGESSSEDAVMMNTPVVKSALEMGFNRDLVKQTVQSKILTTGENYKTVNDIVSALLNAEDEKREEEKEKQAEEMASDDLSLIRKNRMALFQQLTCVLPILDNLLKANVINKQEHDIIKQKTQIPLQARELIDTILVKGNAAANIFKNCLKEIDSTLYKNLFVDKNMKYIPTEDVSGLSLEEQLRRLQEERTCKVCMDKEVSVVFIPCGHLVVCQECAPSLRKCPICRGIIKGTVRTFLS

B1: DDX3ΔCARD: dominant negative mutant DDX3 lacking aa 1-150 (CARD-truncated DDX3) (protein)
chain: FSGGNTGINFEKYDDIPVEATGNNCPPHIESFSDVEMGEIIMGNIELTRYTRPTPVQKHAIPIIKEKRDLMACAQTGSGKTAAFLLPILSQIYSDGPGEALRAMKENGRYGRRKQYPISLVLAPTRELAVQIYEEARKFSYRSRVRPCVVYGGADIGQQIRDLERGCHLLVATPGRLVDMMERGKIGLDFCKYLVLDEADRMLDMGFEPQIRRIVEQDTMPPKGVRHTMMFSATFPKEIQMLARDFLDEYIFLAVGRVGSTSENITQKVVWVEESDKRSFLLDLLNATGKDSLTLVFVETKKGADSLEDFLYHEGYACTSIHGDRSQRDREEALHQFRSGKSPILVATAVAARGLDISNVKHVINFDLPSDIEEYVHRIGRTGRVGNLGLATSFFNERNINITKDLLDLLVEAKQEVPSWLENMAYEHHYKGSSRGRSKSSRFSGGFGARDYRQSSGASSSSFSSSRASSSRSGGGGHGSSRGFGGGGYGGFYNSDGYGGNYNSQGVDWWGN
Take B1: the “interaction with cIAP1” value in assay [1] is recorded as “fails to interact with cIAP1”. Further, the “susceptibility to TRA-8-induced apoptosis” value in assay [2] was “regained their susceptibility to TRA-8-induced apoptosis”.
